Data: patent publication US20090029421, “Recombinase polymerase amplification” (published 2009)

Columns and labels:
Experiment in all cases: competition; excess ssDNA oligo titrates gp32 off probe
Conditions in all cases: tags: C-terminal His6
gp32 (Aeh1) = biological target: T1, gp32 (Aeh1) (Aeromonas phage Aeh1)
T1 chain: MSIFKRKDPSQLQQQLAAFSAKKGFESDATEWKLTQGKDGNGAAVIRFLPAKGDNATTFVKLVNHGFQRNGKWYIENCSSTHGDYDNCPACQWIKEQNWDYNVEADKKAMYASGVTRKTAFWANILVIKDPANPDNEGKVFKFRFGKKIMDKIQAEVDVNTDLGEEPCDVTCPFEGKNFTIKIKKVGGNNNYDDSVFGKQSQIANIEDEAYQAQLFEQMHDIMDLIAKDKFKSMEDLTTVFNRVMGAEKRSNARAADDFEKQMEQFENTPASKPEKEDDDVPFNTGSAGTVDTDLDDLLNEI
Experimental: (§1) In this experiment, the effects of these challenges on Rb69 gp32, T4 gp32 and Aeh1 gp32 were compared.
(§2) An experiment was performed to assess whether gp32 molecules from different species of origin were biochemically distinct from one another. Experimental conditions were as follows: reactions were performed in 50 ul volume; final concentration of probe (SA-Tamra2; 5′-tgttaattgagcaagtgtatagagcattraygabtatgcgtggag-3′ (SEQ ID NO:126), here y=thf, b=BHQ2-dT, r=TAMRA-dT, 3′=Bio-TEG) was 100 nM; Rb69 pg32 was used at final concentration of 80 ng/μl, Nfo was present at 33 ng/μl; after 350 sec either water, dsDNA (550 ng human genomic DNA; i.e. approximately 10× mass of oligonucleotide probe) or ssDNA ([…] oligonucleotide of sequence 5′[…]-3′ (SEQ ID NO:127)) was added; buffer conditions were 20 mM Tris-acetate, 50 mM potassium acetate (pH 7.9), 10 mM Magnesium Acetate, 1 mM Dithiothreitol. Measurements were made in a fluorometer manufactured by Embedded System Engineering (ESE, GmbH) with LED excitation of 520 nm and emission at 585 nm.
(§3) Initially, a concentration of gp32 was established which permitted only a very low cutting activity by Nfo nuclease on the fluorophore/quencher probe. At this concentration the availability of gp32 was limited to a minimal quantity for substantial probe protection, and under these conditions it was possible to assess very sensitively whether gp32 was partitioned away from the probe in competition experiments. After monitoring the slow probe cutting for a while, excess double-stranded DNA or single-stranded oligonucleotides were added to assess whether this affected the distribution of gp32 on the probe. […] Clearly Rb69 and Aeh1 gp32 molecules differentiated and partitioned much more effectively in favour of single-stranded DNA than T4 gp32.

gp32 (Rb69) = biological target: T2, gp32 (Rb69) (Enterobacteria phage RB69)
T2 chain: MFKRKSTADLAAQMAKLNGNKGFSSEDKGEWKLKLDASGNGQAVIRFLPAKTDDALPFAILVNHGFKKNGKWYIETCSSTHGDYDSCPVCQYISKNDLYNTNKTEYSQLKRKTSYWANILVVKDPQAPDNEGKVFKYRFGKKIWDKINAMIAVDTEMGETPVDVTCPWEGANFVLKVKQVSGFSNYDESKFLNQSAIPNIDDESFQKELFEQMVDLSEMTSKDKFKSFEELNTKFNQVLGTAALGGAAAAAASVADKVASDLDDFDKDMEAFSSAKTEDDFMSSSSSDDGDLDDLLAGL
Experimental: as §1, §2, §3

gp32 (T4) = biological target: T3, gp32 (T4) (Enterobacteria phage T4, UniProt P03695 SEQ:1-301)
T3 sequence: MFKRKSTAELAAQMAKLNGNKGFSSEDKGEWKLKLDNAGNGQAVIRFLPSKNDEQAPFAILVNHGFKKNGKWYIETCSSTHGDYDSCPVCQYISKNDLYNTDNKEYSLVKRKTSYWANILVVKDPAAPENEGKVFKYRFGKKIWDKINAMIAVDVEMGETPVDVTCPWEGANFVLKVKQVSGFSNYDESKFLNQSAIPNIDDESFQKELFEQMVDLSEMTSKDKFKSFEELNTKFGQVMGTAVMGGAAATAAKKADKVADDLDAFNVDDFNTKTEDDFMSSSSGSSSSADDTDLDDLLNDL
Experimental: as §1, §2, §3

Measured: binding result

CTGTATTAGAAGTACATGCTGATCAAGTGACA (ssDNA) [competitor oligonucleotide]
binds: all assays above
